From PMC5264208
Values belong to the binder of their own block, whether it stands above or below them.

What was measured:
[1] = target: T1, pentameric C-reactive protein (human), P02741; assay: native gel or EMSA; BN-PAGE (4-16% Bis-Tris) of pCRP (40 ug/ml) pelleted with liposomes or microvesicles after 1 h at 37 °C in 25 mM Tris-HCl pH 7.4, 150 mM NaCl, 2 mM CaCl2; pCRP and mCRP controls beside it; conditions: remark: other sources report otherwise
T1 chain: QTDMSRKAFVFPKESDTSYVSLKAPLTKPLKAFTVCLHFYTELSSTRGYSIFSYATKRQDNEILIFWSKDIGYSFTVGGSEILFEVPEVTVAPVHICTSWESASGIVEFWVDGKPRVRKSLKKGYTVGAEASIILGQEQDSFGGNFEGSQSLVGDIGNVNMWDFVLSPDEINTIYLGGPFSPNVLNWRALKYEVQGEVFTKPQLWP

[2] = target: T2, tissue-deposited CRP (human (endogenous in burn wound, skeletal muscle and carotid plaque tissue)), P02741; assay: native gel or EMSA; SDS-PAGE with 1/20 of the usual SDS content (8-13% gels), burn wound lysates loaded in native buffer; control pCRP and mCRP beside them; Western blot with anti-CRP-8; conditions: remark: other sources report otherwise
T2 chain: T1 chain

stoichiometry N [1]: 5
B1: pentameric C-reactive protein, P02741 19-224 (natural protein)
chain: T1 chain

stoichiometry N [2]: 5
B2: tissue-deposited CRP, P02741 19-224 (natural protein)
chain: T1 chain
